Here are results for 28 molecules from patent US20260116963A1 (GENERATE BIOMEDICINES, published 2026).

Substitutions are numbered along the chain they refer to. A value given as a limit tells only on which side of the number the result lay.

First the molecules themselves.
B1: AbA (antibody, human IgG1, kappa, V domains shown)
VH: QVTLRESGPALVKPTQTLTLTCTVSGFSLSAYSVNWIRQPPGKALEWLAMIWGDGKIVYNSALKSRLTISKDTSKNQVVLTMTNMDPVDTATYYCAGDGYYPYAMDNWGQGSLVTVSS
VL: DIVMTQSPDSLSVSLGERATINCRASKSVDSYGRSYMHWYQQKPGQPPKLLIYLASNLESGVPDRFSGSGSGTDFTLTISSLQAEDVAVYYCQQNNEDPRTFGGGTKVEIKR
B2: AbF (antibody, human IgG1, kappa, V domains shown)
VH: B1 VH with F27A, A31R, G55A, Y101F
VL: B1 VL with K27E, R34N
B3: AbB (antibody, human IgG1, kappa, V domains shown)
VH: B1 VH with F27A
VL: B1 VL with S31Y, R34H
B4: AbI (antibody, human IgG1, kappa, V domains shown)
VH: B1 VH with F27A, A31R, Y100F
VL: B1 VL with R34N
B5: AbE (antibody, human IgG1, kappa, V domains shown)
VH: B1 VH with F27A, Y101F
VL: B1 VL with R34H, L54W
B6: AbM (antibody, human IgG1, kappa, V domains shown)
VH: B1 VH with F27A, Y101F
VL: B1 VL with S31Y
B7: AbP (antibody, human IgG1, kappa, V domains shown)
VH: B1 VH with F27A, I57V, Y101F, N107H
VL: B1 VL with R34N, L54W
B8: AbO (antibody, human IgG1, kappa, V domains shown)
VH: B1 VH with F27Y, Y101F, N107V
VL: B1 VL with S31Y, R34H
B9: AbH (antibody, human IgG1, kappa, V domains shown)
VH: B1 VH with F27A, A31R
VL: B1 VL with R34N, L54R
B10: AbL (antibody, human IgG1, kappa, V domains shown)
VH: B1 VH with A31R
VL: B1 VL
B11: AbC (antibody, human IgG1, kappa, V domains shown)
VH: B1 VH with N107Y
VL: B1 VL with S31Y, R34N
B12: AbN (antibody, human IgG1, kappa, V domains shown)
VH: B1 VH with F27A
VL: B1 VL with K27E, S31Y, R34H
B13: AbJ (antibody, human IgG1, kappa, V domains shown)
VH: B1 VH with F27A, G55R, I57K, Y101F, N107L
VL: B1 VL with R34H, L54W
B14: AbK (antibody, human IgG1, kappa, V domains shown)
VH: B1 VH with F27S, A31R
VL: B1 VL with K27Q, R34N
B15: AbD (antibody, human IgG1, kappa, V domains shown)
VH: B1 VH with F27S, I57V, Y101F
VL: B1 VL with R34N
B16: NB-13 (antibody, human IgG4 S228P, kappa)
heavy: QVTLRESGPALVKPTQTLTLTCTVSGFSLSAYSVNWIRQPPGKALEWLAMIWGDGKIVYNSALKSRLTISKDTSKNQVVLTMTNMDPVDTATYYCAGDGYYPYAMDNWGQGSLVTVSSASTKGPSVFPLAPCSRSTSESTAALGCLVKDYFPEPVTVSWNSGALTSGVHTFPAVLQSSGLYSLSSVVTVPSSSLGTKTYTCNVDHKPSNTKVDKRVESKYGPPCPPCPAPEFLGGPSVFLFPPKPKDTLYITREPEVTCVVVDVSQEDPEVQFNWYVDGVEVHNAKTKPREEQFNSTYRVVSVLTVLHQDWLNGKEYKCKVSNKGLPSSIEKTISKAKGQPREPQVYTLPPSQEEMTKNQVSLTCLVKGFYPSDIAVEWESNGQPENNYKTTPPVLDSDGSFFLYSRLTVDKSRWQEGNVFSCSVMHEALHNHYTQKSLSLSLGK
light: DIVMTQSPDSLSVSLGERATINCRASKSVDSYGNSFMHWYQQKPGQPPKLLIYLASNLESGVPDRFSGSGSGTDFTLTISSLQAEDVAVYYCQQNNEDPRTFGGGTKVEIKRTVAAPSVFIFPPSDEQLKSGTASVVCLLNNFYPREAKVQWKVDNALQSGNSQESVTEQDSKDSTYSLSSTLTLSKADYEKHKVYACEVTHQGLSSPVTKSFNRGEC
B17: NB-8 (antibody, human IgG4 S228P, kappa, V domains shown)
VH: B1 VH with F27A, D98E, N107Y
VL: B1 VL with R34N, Y36F
B18: NB-7 (antibody, human IgG4 S228P, kappa, V domains shown)
VH: B1 VH
VL: B1 VL with R34N, Y36F, R100L
B19: NB-11 (antibody, human IgG4 S228P, kappa, V domains shown)
VH: B1 VH with F27A, K56T, Y101F
VL: B1 VL with R34H, Y36F
B20: NB-9 (antibody, human IgG4 S228P, kappa, V domains shown)
VH: B1 VH with D54S
VL: B1 VL with R34N, Y36F
B21: NB-5 (antibody, human IgG4 S228P, kappa, V domains shown)
VH: B1 VH with F27A, D54S
VL: B1 VL with R34N, Y36F
B22: NB-6 (antibody, human IgG4 S228P, kappa, V domains shown)
VH: B1 VH with F27A, W52S
VL: B1 VL with R34N, Y36F
B23: NB-2 (antibody, human IgG4 S228P, kappa, V domains shown)
VH: B1 VH with D98L
VL: B1 VL with R34N, Y36F
B24: NB-4 (antibody, human IgG4 S228P, kappa, V domains shown)
VH: B1 VH with F27A
VL: B1 VL with R34N, Y36F, R100L
B25: NB-3 (antibody, human IgG4 S228P, kappa, V domains shown)
VH: B1 VH with F27A, A31S, D98E, N107V
VL: B1 VL with R34N
B26: NB-12 (antibody, human IgG4 S228P, kappa, V domains shown)
VH: B1 VH with F27A, Y103W
VL: B1 VL with K27Q, R34N, Y36F
B27: NB-10 (antibody, human IgG4 S228P, kappa, V domains shown)
VH: B1 VH with F27A
VL: B1 VL with S31Y, R34N, Y36F, R100L
B28: NB-1 (antibody, human IgG4 S228P, kappa, V domains shown)
VH: B1 VH with F27A, D98L, N107L
VL: B1 VL with R34N, Y36F

T1 sequence (P35225 other isoform, or with tags, fused parts or gaps limits assumed): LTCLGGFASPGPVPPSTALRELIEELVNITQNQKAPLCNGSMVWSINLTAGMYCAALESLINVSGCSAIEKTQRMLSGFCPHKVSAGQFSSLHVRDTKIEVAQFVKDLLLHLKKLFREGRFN

The first assay concerns the target T1, human IL-13 (human, UniProt P35225 25-146, limits assumed). Briefly: cell-based or functional assay.
For the molecule B1, the “IC50, HEK-Blue IL-13Ra1/IL-4Ra STAT6-SEAP reporter assay” value was 0.123 µg/mL.

In the case of B2, the “IC50, HEK-Blue IL-13Ra1/IL-4Ra STAT6-SEAP reporter assay” value is 0.126 µg/mL.

As for B3, the “IC50, HEK-Blue IL-13Ra1/IL-4Ra STAT6-SEAP reporter assay” value is 0.132 µg/mL.

With B4, the “IC50, HEK-Blue IL-13Ra1/IL-4Ra STAT6-SEAP reporter assay” value is 0.223 µg/mL.

Regarding B5, the “IC50, HEK-Blue IL-13Ra1/IL-4Ra STAT6-SEAP reporter assay” value amounted to 0.118 µg/mL.

Take B6: the “IC50, HEK-Blue IL-13Ra1/IL-4Ra STAT6-SEAP reporter assay” value is 0.136 µg/mL.

Consider B7, for which the “IC50, HEK-Blue IL-13Ra1/IL-4Ra STAT6-SEAP reporter assay” value amounted to 0.152 µg/mL.

Turning to B8, the “IC50, HEK-Blue IL-13Ra1/IL-4Ra STAT6-SEAP reporter assay” value came to 0.165 µg/mL.

Turning to B9, the “IC50, HEK-Blue IL-13Ra1/IL-4Ra STAT6-SEAP reporter assay” value worked out at 0.107 µg/mL.

In the case of B10, the “IC50, HEK-Blue IL-13Ra1/IL-4Ra STAT6-SEAP reporter assay” value was determined as 0.32 µg/mL.

Regarding B11, the “IC50, HEK-Blue IL-13Ra1/IL-4Ra STAT6-SEAP reporter assay” value amounted to 0.118 µg/mL.

Turning to B12, the “IC50, HEK-Blue IL-13Ra1/IL-4Ra STAT6-SEAP reporter assay” value was 0.14 µg/mL.

As to B13, the “IC50, HEK-Blue IL-13Ra1/IL-4Ra STAT6-SEAP reporter assay” value stood at 0.167 µg/mL.

Regarding B14, the “IC50, HEK-Blue IL-13Ra1/IL-4Ra STAT6-SEAP reporter assay” value was determined as 0.172 µg/mL.

Take B15: the “IC50, HEK-Blue IL-13Ra1/IL-4Ra STAT6-SEAP reporter assay” value amounted to 0.161 µg/mL.

Another assay has as its target T1, human IL-13. In words: SPR (Biacore 8K+), antibody captured, human IL-13 as analyte, 37 C; less than 5% decay in 5,400 s, KD estimated.
One may read the Kd as the concentration at which binding is half-saturated. On to B2, for which the equilibrium dissociation constant (Kd) is < 0.015 nM.

Turning to B4, the Kd is < 0.015 nM.

As for B5, the dissociation constant Kd is < 0.015 nM.

Regarding B6, the equilibrium dissociation constant (Kd) was < 0.015 nM.

Turning to B7, the Kd is < 0.015 nM.

For B8, the Kd was < 0.015 nM.

Regarding B9, the Kd is < 0.015 nM.

Turning to B10, the dissociation constant Kd was < 0.015 nM.

Turning to B12, the Kd was < 0.015 nM.

On to B13, for which the dissociation constant Kd is < 0.015 nM.

As to B14, the Kd is < 0.015 nM.

On to B15, for which the dissociation constant (Kd) was < 0.015 nM.

In another assay the target is T1, human IL-13. In words: SPR (Biacore 8K+), antibody captured on anti-human pAb CM4 chip, human IL-13 0.6-10 nM as analyte, 37 C, 1:1 fit. A general note: In SPR one partner is held on a chip, and binding of the other changes the refractive index at the surface.
By koff is commonly meant a measure of how fast the partners let go of each other. A lower koff goes with a long-lived complex. One may read the kon as the rate constant with which the complex forms. Read a low kon as slower complex formation. With B1, the Kd is 0.0162 nM, the koff turned out to be 1.11e-05 s⁻¹ and the association rate constant (kon) stood at 847000 M⁻¹ s⁻¹.

B3 came in with a Kd of 0.0215 nM, an off-rate (koff) of 1.02e-05 s⁻¹ and a kon of 552000 M⁻¹ s⁻¹.

B11 displayed a dissociation constant (Kd) of 0.0273 nM, an off-rate constant (koff) of 2.98e-05 s⁻¹ and an on-rate (kon) of 1.09e+06 M⁻¹ s⁻¹.

For a further assay, the target named is T1, human IL-13. In words: SPR array (Carterra LSA), antibody captured on anti-human pAb HC30M chip, human IL-13 0.05-100 nM as analyte, 25 C, 1:1 fit.
For B16, the equilibrium dissociation constant (Kd) is < 0.1 nM.

The molecule B17 yielded a Kd of 2.56 nM, a koff of 0.000674 s⁻¹ and a kon of 259000 M⁻¹ s⁻¹.

Molecule B18 came in with a dissociation constant (Kd) of 8.35 nM, a koff of 0.000827 s⁻¹ and a kon of 100000 M⁻¹ s⁻¹.

Consider B19, for which the Kd worked out at 0.97 nM, the off-rate constant (koff) is 0.000135 s⁻¹ and the kon came out at 139000 M⁻¹ s⁻¹.

B20 yielded a dissociation constant Kd of 2.41 nM, an off-rate constant (koff) of 0.000734 s⁻¹ and an association rate constant (kon) of 305000 M⁻¹ s⁻¹.

In turn, B21 returned a Kd of 4.24 nM, a dissociation rate constant (koff) of 0.00127 s⁻¹ and a kon of 303000 M⁻¹ s⁻¹.

B22 had a Kd of 3.34 nM, a dissociation rate constant (koff) of 0.000855 s⁻¹ and an on-rate constant (kon) of 258000 M⁻¹ s⁻¹.

Consider B23, for which binding was put at a Kd of 6.67 nM, the koff turned out to be 0.000618 s⁻¹ and the kon was 93000 M⁻¹ s⁻¹.

As to B24, the dissociation constant (Kd) was determined as 13.6 nM, the koff is 0.000987 s⁻¹ and the association rate constant (kon) was determined as 74000 M⁻¹ s⁻¹.

B25 yielded a Kd of 1.89 nM, an off-rate constant (koff) of 0.00047 s⁻¹ and a kon of 290000 M⁻¹ s⁻¹.

In the case of B26, the affinity, expressed as Kd, was 6.09 nM; the off-rate constant (koff) was 0.000711 s⁻¹; the kon stood at 117000 M⁻¹ s⁻¹.

B27 yielded a Kd of 13.6 nM, an off-rate (koff) of 0.000805 s⁻¹ and an on-rate constant (kon) of 62000 M⁻¹ s⁻¹.

For B28, the Kd is 5.21 nM, the koff was determined as 0.000601 s⁻¹ and the on-rate (kon) came out at 117000 M⁻¹ s⁻¹.
